Data as given in PMC4778124, “A continuous sirtuin activity assay without any coupling to enzymatic or chemical reactions” (Scientific Reports, 2016).
One block for each binder: values may come before it. *: point of attachment. Myristoyl = CCCCCCCCCCCCCC(=O)*

Tests used:
[1] = substrate: CC(=O)N[C@@H](CCC(=O)O)C(=O)N[C@@H](C)C(=O)N[C@@H](CC(C)C)C(=O)N1CCC[C@H]1C(=O)N[C@@H](CCCCN)C(=O)N[C@@H](CCCCNC(=O)CCCCCCCCCCNC(=O)c1ccccc1N)C(=O)N[C@@H](Cc1ccc(O)c([N+](=O)[O-])c1)C(=O)NCC(=O)NCC(N)=O; assay: purified protein, by the assay type; conditions: other: Sirt1 500 nM; fluorescence spectrophotometer (footnote a); 37.0 °C
Procedure: The reactions (total volume 100 μl) were measured in black low-binding 96-well microtiter plates (NUNC). Assay-buffer, 500 μM NAD^+ and 0.07–200 μM peptide substrate were pre-incubated at 37 °C for 5 min. The reaction was started by adding human sirtuin (0.01–0.5 μM). The signals were converted into product concentration via calibration lines and the resulting data were evaluated as described above (single fluorescence measurement). […] The reaction mixture for the calibration lines was prepared as described for the single fluorescence measurements.

[2] = substrate: CCCCCCCCCCCCCC(=O)NCCCC[C@H](NC(=O)[C@H](CCCCN)NC(=O)[C@@H]1CCCN1C(=O)[C@H](CC(C)C)NC(=O)[C@H](C)NC(=O)[C@H](CCC(=O)O)NC(C)=O)C(=O)N[C@H](C(=O)NCC(=O)NCC(N)=O)[C@@H](C)O; assay: HPLC based activity assay; type: biochemical, human; conditions: other: HPLC; Sirt5 0.5 µM; pH 7.8; 37.0 °C
Procedure: (§1) For the determination of kinetic constants for all sirtuin mediated reactions solutions containing 20 mM TRIS/HCl pH 7.8, 150 mM NaCl, 5 mM MgCl2 (assay-buffer), 500 μM NAD^+ and varying substrate concentrations (0.5–100 μM) were used. Deacylation was started by adding human sirtuin to reach a final concentration of 0.01–0.5 μM. Enzyme-catalyzed reaction was stopped using TFA (1% final concentration) after 1 min to 180 min of incubation at 37 °C depending on substrate reactivity. The cleavage rate of the different TNFα peptide derivatives was analyzed using analytical reversed phase HPLC. 40 to 80 μl of compounds or reaction solutions were injected and separated using a linear gradient from 5% to 95% solvent B within 6min. The product and substrate peaks were quantified using absorbance at 220 nm or 365 nm (absorption of 3-Nitrotyrosyl moiety). The peak areas were integrated and converted to initial velocity rates calculated from the ratio of product area to total peak area. Linear regression of conversions plotted against time yielded reaction rates in μM/min (relative conversion below 20% of substrate). Non-linear regression according to Michaelis-Menten of the reaction rates at different substrate concentrations yielded KM- and kcat-values using the program SigmaPlot 8 (Systat Software, San Jose, USA). All measurements were done in duplicates.

[3] = substrate: CCCCCCCCCCCCCC(=O)NCCCC[C@H](NC(=O)[C@H](CCCCN)NC(=O)[C@@H]1CCCN1C(=O)[C@H](CC(C)C)NC(=O)[C@H](C)NC(=O)[C@H](CCC(=O)O)NC(C)=O)C(=O)N[C@H](C(=O)NCC(=O)NCC(N)=O)[C@@H](C)O; assay: HPLC based activity assay; type: biochemical, human; conditions: other: HPLC; Sirt3 0.1 µM; pH 7.8; 37.0 °C
Procedure: as §1
The reactions were performed with 0.1- 0.5 µM sirtuin, 500 µM NAD^+ and 50µM 13/16. All reactions were done in duplicates (n=2).

[4] = substrate: CC(=O)N[C@@H](CCC(=O)O)C(=O)N[C@@H](C)C(=O)N[C@@H](CC(C)C)C(=O)N1CCC[C@H]1C(=O)N[C@@H](CCCCN)C(=O)N[C@@H](CCCCNC(=O)CCCCCCCCCCNC(=O)c1ccccc1N)C(=O)N[C@@H](Cc1ccc(O)c([N+](=O)[O-])c1)C(=O)NCC(=O)NCC(N)=O; assay: Continuous fluorescence assay, substrate kinetics; type: biochemical, human; conditions: other: FS (fluorescence spectrometer); Sirt3 0.1 µM; 37.0 °C
Procedure: The fluorescence measurements were performed on a Hitachi F-4500 fluorescence spectrophotometer (Tokyo, Japan) at λEx = 310 nm and λEm = 405 nm (slitEx = 5 nm, slitEm = 2.5 nm, PMT = 700 V for 3, 4 and 5 as well as slitEx = 10 nm, slitEm = 10 nm, PMT = 950 V for 4a). Each reaction mixture contained assay-buffer, 0.5 mM NAD^+ and various peptide concentrations (0.1–100 μM) and was preincubated for 5 minutes at 37 °C. The reaction was started by adding human sirtuin (0.1–0.5 μM) and observed for 5–10 minutes. Product formation could be monitored by increase of relative fluorescence. This signal was converted into product concentration via calibration lines. The slope of the linear regression of product formation against time yielded the reaction velocity rates in μM/s. KM and kcat were obtained by non-linear regression according to Michaelis-Menten. All measurements were done in duplicates. For determination of reaction velocity rates in μM/s calibration lines were necessary. […] The reaction mixture was analyzed with HPLC, to control if the entire peptide substrate was turned to product. Additionally the mixture was diluted (0.1–25 μM) and measured with Hitachi F-4500 fluorescence spectrophotometer at the same conditions as described above.
The microtiter plate fluorescence measurements were performed on a Tecan Infinite M200 microplate reader (Maennedorf, Switzerland) at λEx = 320 nm and λEm = 408 nm (lag time 9 μs, integration time […], gain 160, 170 or 182). The reactions (total volume 100 μl) were measured in black low-binding 96-well microtiter plates (NUNC). […] The signals were converted into product concentration via calibration lines and the resulting data were evaluated as described above (single fluorescence measurement). […] The reaction mixture for the calibration lines was prepared as described for the single fluorescence measurements. […] The resulting plots were analyzed by a competitive inhibition and non-competitive inhibition model using the program Sigma Plot 8. […] The negative Ki value can be determined as intersection with the X-axis from these plots.

[5] = target: human sirtuin 6, His-tagged Sirt6 (1-355) (human) (UniProt Q8N6T7)
Chain of human sirtuin 6, His-tagged Sirt6 (1-355) (human) (Q8N6T7 whole entry): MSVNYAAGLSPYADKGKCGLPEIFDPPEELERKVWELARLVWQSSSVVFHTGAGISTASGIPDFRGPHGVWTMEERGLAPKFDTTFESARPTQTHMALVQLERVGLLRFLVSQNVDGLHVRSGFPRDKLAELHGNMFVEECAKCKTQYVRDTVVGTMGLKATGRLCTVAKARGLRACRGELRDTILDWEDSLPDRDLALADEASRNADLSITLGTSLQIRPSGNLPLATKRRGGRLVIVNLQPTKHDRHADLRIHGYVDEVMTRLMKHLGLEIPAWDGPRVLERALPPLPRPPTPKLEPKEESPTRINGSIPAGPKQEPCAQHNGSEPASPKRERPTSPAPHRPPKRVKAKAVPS

B1: Sirt1 (Homo sapiens) (protein)
chain: MADEAALALQPGGSPSAAGADREAASSPAGEPLRKRPRRDGPGLERSPGEPGGAAPEREVPAAARGCPGAAAAALWREAEAEAAAAGGEQEAQATAAAGEGDNGPGLQGPSREPPLADNLYDEDDDDEGEEEEEAAAAAIGYRDNLLFGDEIITNGFHSCESDEEDRASHASSSDWTPRPRIGPYTFVQQHLMIGTDPRTILKDLLPETIPPPELDDMTLWQIVINILSEPPKRKKRKDINTIEDAVKLLQECKKIIVLTGAGVSVSCGIPDFRSRDGIYARLAVDFPDLPDPQAMFDIEYFRKDPRPFFKFAKEIYPGQFQPSLCHKFIALSDKEGKLLRNYTQNIDTLEQVAGIQRIIQCHGSFATASCLICKYKVDCEAVRGDIFNQVVPRCPRCPADEPLAIMKPEIVFFGENLPEQFHRAMKYDKDEVDLLIVIGSSLKVRPVALIPSSIPHEVPQILINREPLPHLHFDVELLGDCDVIINELCHRLGGEYAKLCCNPVKLSEITEKPPRTQKELAYLSELPPTPLHVSEDSSSPERTSPPDSSVIVTLLDQAAKSNDDLDVSESKGCMEEKPQEVQTSRNVESIAEQMENPDLKNVGSSTGEKNERTSVAGTVRKCWPNRVAKEQISRRLDGNQYLFLPPNRYIFHGAEVYSDSEDDVLSSSSCGSNSDSGTCQSPSLEEPMEDESEIEEFYNGLEDEPDVPERAGGAGFGTDGDDQEAINEAISVKQEVTDMNYPSNKS
Km [1]: 0.7 ± 0.08 µM

B2: Sirt5 (Homo sapiens) (protein)
chain: SSSMADFRKFFAKAKHIVIISGAGVSAESGVPTFRGAGGYWRKWQAQDLATPLAFAHNPSRVWEFYHYRREVMGSKEPNAGHRAIAECETRLGKQGRRVVVITQNIDELHRKAGTKNLLEIHGSLFKTRCTSCGVVAENYKSPICPALSGKGAPEPGTQDASIPVEKLPRCEEAGCGGLLRPHVVWFGENLDPAILEEVDRELAHCDLCLVVGTSSVVYPAAMFAPQVAARGVPVAEFNTETTPATNRFRFHFQGPCGTTLPEALACHENETVS
notes: made in house
Km [2]: 16.5 ± 3.1 µM
kcat [2]: 5.7∙10^-3 ± 0.3∙10^-3 s^-1
kcat/Km [2]: 3.48∙10^2 M^-1s^-1

B3: Sirt3 (Homo sapiens) (protein)
chain: MAFWGWRAAAALRLWGRVVERVEAGGGVGPFQACGCRLVLGGRDDVSAGLRGSHGARGEPLDPARPLQRPPRPEVPRAFRRQPRAAAPSFFFSSIKGGRRSISFSVGASSVVGSGGSSDKGKLSLQDVAELIRARACQRVVVMVGAGISTPSGIPDFRSPGSGLYSNLQQYDLPYPEAIFELPFFFHNPKPFFTLAKELYPGNYKPNVTHYFLRLLHDKGLLLRLYTQNIDGLERVSGIPASKLVEAHGTFASATCTVCQRPFPGEDIRADVMADRVPRCPVCTGVVKPDIVFFGEPLPQRFLLHVVDFPMADLLLILGTSLEVEPFASLTEAVRSSVPRLLINRDLVGPLAWHPRSRDVAQLGDVVHGVESLVELLGWTEEMRDLVQRETGKLDGPDK
notes: made in house
Km [3]: 1.6 ± 0.4 µM
kcat [3]: 4.7∙10^-2 ± 0.3∙10^-2 s^-1
kcat/Km [3]: 2.95∙10^4 M^-1s^-1
Km [4]: 2.4 ± 0.2 µM
kcat [4]: 1.2∙10^-2 ± 0.3∙10^-3 s^-1
kcat/Km [4]: 5.15∙10^3 M^-1s^-1

KM of Sirt6-mediated deacylation, HPLC-based activity assay [5]: 6 µM
B4: myristoylated TNFα-derived peptide 1a (peptide)
peptide: Ac-EALPKK(Myristoyl)TGG-NH2
SMILES: CCCCCCCCCCCCCC(=O)NCCCC[C@H](NC(=O)[C@H](CCCCN)NC(=O)[C@@H]1CCCN1C(=O)[C@H](CC(C)C)NC(=O)[C@H](C)NC(=O)[C@H](CCC(=O)O)NC(C)=O)C(=O)N[C@H](C(=O)NCC(=O)NCC(N)=O)[C@@H](C)O
